Values belong to the binder of their own block, whether it stands above or below them.
Legend:
[1] = biological target: T1, extracellular domain of mIFNgR2 (mouse); experiment: flow cytometry, cross-reactivity
T1 construct: also called mIFNgR2 ECD; mouse IFNgR2 extracellular domain
T1 chain: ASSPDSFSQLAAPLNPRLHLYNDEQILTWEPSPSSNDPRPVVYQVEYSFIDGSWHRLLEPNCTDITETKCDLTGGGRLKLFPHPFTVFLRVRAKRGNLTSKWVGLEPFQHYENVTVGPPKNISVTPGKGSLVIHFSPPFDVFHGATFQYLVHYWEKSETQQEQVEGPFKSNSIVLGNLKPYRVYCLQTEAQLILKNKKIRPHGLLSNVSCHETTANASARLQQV

[2] = biological target: T2, extracellular domain of hIFNgR2 (human, UniProt P38484 28-247); experiment: phage biopanning and periplasmic extract ELISA (PE-ELISA)
T2 construct: also called hIFNgR2 ECD; hIFNgR2-ECD
T2 sequence: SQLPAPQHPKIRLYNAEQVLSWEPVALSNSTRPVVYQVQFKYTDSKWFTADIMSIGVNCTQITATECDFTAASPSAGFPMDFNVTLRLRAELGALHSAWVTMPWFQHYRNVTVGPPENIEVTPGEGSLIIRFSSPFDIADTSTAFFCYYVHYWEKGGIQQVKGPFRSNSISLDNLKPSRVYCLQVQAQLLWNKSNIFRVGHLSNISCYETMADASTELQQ
Description: Upon completion of the biopanning of Example 3, three 96-well plates of individual phage clones were isolated in order to perform periplasmic extract ELISA (PE-ELISA) on IFNgR2 coated plates to identify positive VHH binders that selectively bound IFNgR2. A 96-well plate was coated with IFNgR2 and PBS under the same conditions. Next, wells were blocked at 37° C. for 1 h. Then, 100 μl of extracted antibodies was added to each well and incubated for 1 h. Subsequently, 100 μl of anti-tag polyclonal antibody conjugated to HRP was added to each well and incubated at 37° C. for 1 h. Plates were developed with TMB substrate. The reaction was stopped by the addition of H2SO4. Absorbance at 450 nm was read on a microtiter plate reader. Antibodies with absorbance of the antigen-coated well at least threefold greater than PBS-coated control were considered to provide specific binding to IFNgR2. Positive clones were sequenced, and sequences analyzed to identify unique clonotypes

binding result [1]: binds | binding result [2]: binds
B1: DR938 (VHH)
VHH: QVQLVESGGGLVQPGGSLRLSCTASGRPRTTYAMGWFRQAPGKEREIVAAISKAGGSTYVADSAKGRFAISKDNAKNTVYLQMNSLKPEDTAVYYCAARAGFAAQIFEYDYWGQGTLVTVSS

binding result [1]: binds | binding result [2]: binds
B2: DR941 (VHH)
VHH: QVQLVESGGGLVEAGGSLRLACAASGSIFRLNLMGWYRQAPGKQRELVAHVGTTGNTAYADSVKGRFTISKDDAKNMVFLQMNSLKPEDTAVYYCYADRWGQFSWGQGTQVTVSS

binding result [1]: binds | binding result [2]: binds
B3: DR952 (VHH)
VHH: QVQLVESGGGLVQAGGFLRLSCAASGRTFSSLAMAWFRQAPGKEREFVAAISRSGGSTDYADSVKGRFTISRDNAKSTLYLQMSSLKPEDTAVYYCAARDYSTLQYYNEYEYSDWGQGTLVTVSS

binding result [1]: binds | binding result [2]: binds
B4: DR937 (VHH)
VHH: QVQLVESGGGLVQPGGSLRLSCAASGRTFRSYSMGWFRQAPGKEREFVAAISWYSGTTYYADPVKGRFTISRDDAKNTLYLQMNSLKPEDTAVYYCAANEIATMESSNDYWGQGTQVTVSS

binding result [1]: binds | binding result [2]: binds
B5: DR943 (VHH)
VHH: QVQLVESGGGLVQAGGSLRLSCVASGRTVGYGMAWFRQAPGKQRDVVAAITWSGTSTYYPDSVKGRFTISRDNAKNTMYLQMSSLKPEDTAVYYCAAGSRRRVGVDVGGYDYWGQGTQVTVSS

binding result [1]: binds | binding result [2]: binds
B6: DR940 (VHH)
VHH: EVQLVESGGRLVQTGGSLRLSCAASGRTFSNYAMGWFRQAPGKEREFVAAISWYSGNTYYADSVKGRFTISRDNAKNTMYLQMNSLKPEDTAVYYCAANQIATMISVGDYWGQGTLVTVSS

binding result [1]: binds | binding result [2]: binds
B7: DR946 (VHH)
VHH: QVQLVESGGGLVQPGESLRLSCAASGPFTRYAMGWFRQAPGKEREFVAAISWSSGNTYYVDSVKGRFTISRDNAKNTMYLQMNSLKPEDTAVYYCAANEVATMSGPDDYWGQGTQVTVSS

binding result [1]: binds | binding result [2]: binds
B8: DR945 (VHH)
VHH: LVESGGGLVQLVQAGGSLRLSCAASGRTFSGYNMGWFRQAPGKEREFVAAIAWAGSRTYYTDSVKGRFTISRDNAKNTMYLQMNTLRPEDTAVYYCAAHDETYYRLDRVDLYTHWGQGTQVTVSS

binding result [1]: binds | binding result [2]: binds
B9: DR950 (VHH)
VHH: QVQLVESGGGLVQAGGSLRLSCAASGLTTSSAALAWFRQAPGKERELDPTITSGGGSTYYADSVKGRFTISKDNAKNTLYLQMSSLKPEDTAVYYCAARFYSTTYYYREHEYSDWGQGTQVTVSS

binding result [1]: binds | binding result [2]: binds
B10: DR954 (VHH)
VHH: QVQLVESGGGLVQAGGSLRLSCAAARRTLHNFAMAWFRQAPGKEREFVAAISKGGGSADYADSVKGRFTISRDNAKNTVYLQMNSLKPEDTAVYYCAANDLASYSDSSYTSTSRYDYWGQGTQVTVSS

binding result [1]: binds | binding result [2]: binds
B11: DR948 (VHH)
VHH: QVQLVESGGGLVQAGDSLRLSCVASGSIDSSYYVSWFRQAPGKERDLVAAINWGDSRTAYADSVKGRFTISRDNAKNTVYLQMHSLRPNDTAVYYCASRIGLGGPVVAAPTRYPYWGQGTLVTVSS

binding result [1]: binds | binding result [2]: binds
B12: DR951 (VHH)
VHH: QVQLVESGGGLVQAGGSLRLSCAASGRTFGTSFGSLSMGWFRQAPGKEREFVAAISRNIGRTYYADSVKDRFTISRDNAKNTASLQMNSLEPEDTAVYNCAATNSYDDLRRSYAYDYWGQGTQVTVSS

binding result [1]: binds | binding result [2]: binds
B13: DR929 (VHH)
VHH: QVQLVESGGGLVQAGGSLRLSCVASGRTFSSYAMGWFRQTPGKEREFVSAISRGGGSTDYADSVKGRFTISRDNAKNTVYLQMNNLKSEDTAVYYCALRAYSGRYYQFLEYDYWGQGTQVTVSS

binding result [1]: binds | binding result [2]: binds
B14: DR957 (VHH)
VHH: QVQLVESGGGLVQAGGSLRLSCAPSGRTFSSYAMAWFRQPPGKEREFVAAITVSGASTYYADSVKGRFTISRDNAKNSMYLQMNSLKPEDTAVYYCAAGGPGTIFPDYDYWGQGTQVTVSS

binding result [1]: binds | binding result [2]: binds
B15: DR936 (VHH)
VHH: EVQLVESGGGLVQAGGSLRLSCAASGRTFSSVAMAWFRQAPGKEREFVSAISSGGGSTDYADSVKGRFTISKDNAKNTMYLQMDSLKPEDTAVYYCAARDYSSRRYYQSRYEYDLWGLGTQVTVSS

binding result [1]: binds | binding result [2]: binds
B16: DR949 (VHH)
VHH: QVQLVESGGGLVQAGGSLRLSCAASESILRFNVMSWLRQAPGKQRELVAVITSGGSTNYADSVKGRFTISRDNAKNTVYLQMNSLKPEDTAVYYCAADESGQYYWGQGTQVTVSS

binding result [2]: binds
B17: DR939 (VHH)
VHH: EVQLVESGGGLVQAGGSMRLSCANSGRTFGTYAMGWFRQSPGKERERVASIDRDGSMSYYADSVKGRFTISGDNAKNTVYLQMNSLKPEDTAVYYCAASRRAVISLQTVDYWGQGTQVTVSS

binding result [1]: binds | binding result [2]: binds
B18: DR942 (VHH)
VHH: QVQLVESGGGLVQAGGSLRLSCVASGRTFTGYAMGWFRQAPGKEREFVAVITWSGATTYYSASVKGRFTLSRDNAKNTVYLQMNSLKSEDTAVYYCAIRIRDGVSPENPNEYGYWGQGTQVTVSS

binding result [1]: binds | binding result [2]: binds
B19: DR928 (VHH)
VHH: QVQLVESGGGLVQAGGSLRLSCAASGRTFSNYRMGWFRQAPGKEREFVAAISRGGGTTLYADSVKGRFTISRDNAKNTVDLQMNRLKPEDTAVYFCAAGDFSTTWDEYNYWGQGTQVTVSS

binding result [1]: binds | binding result [2]: binds
B20: DR953 (VHH)
VHH: QVQLVESGGGLVQAGDSLRLSCAASGPTFSTYAMAWFRQAPGKEREFVAAITQSGRTTYYEDSVKGRFTISKDNAKNTLYLQMNSLQPEDTAVYYCAARDLWSDSPDDWRIYSFWGQGTQVTVSS

binding result [1]: binds | binding result [2]: binds
B21: DR927 (VHH)
VHH: QVQLVESGGGLVQAGGSLRLSCAASGRTFTSYAMNWFRQAPGKEREFVAAISWSSGNTYVADSVKGRFAISRDKAKNTMYLQMNSLAPEDTAVYYCAATTIATMSDEYTYWGQGTQVTVSS

binding result [1]: binds | binding result [2]: binds
B22: DR947 (VHH)
VHH: QVQLVESGGGLVQAGGSLRLSCAASGGSFGRYTMGWYRQAPGKEREFVAVISWSGTNTYYADSVKGRFTISRDNAKNTMYLQMNDLKPEDTAVYYCAARETYYSHWDERMEYDYWGQGTQVTVSS

binding result [1]: binds | binding result [2]: binds
B23: DR958 (VHH)
VHH: QVQLVESGGGLVQAGDSLTLSCTASGRTFSGYNMGWFRQAPGKERDFVAAINWIGGATYYADSVKGRFTISRDNAKNTVYLQMNSLKPEDTAVYYCHRYSEKFYSGKDYYTRDYDYWGQGTQVTVSS

binding result [1]: binds | binding result [2]: binds
B24: DR955 (VHH)
VHH: QVQLVESGGGLVQTGGSLRLSCAASGRTFSSYAMAWFRQAPGKEREFVAAISILGGSADYEDSVQGRFTISRDNAKNTMYLQMNSLKPEDTAVYYCAARRPAPSDSYWSSTSYAYWGQGTLVTVSS

binding result [1]: binds | binding result [2]: binds
B25: DR956 (VHH)
VHH: EVQLVESGGGLVQAGGSLRLSCAASGRTFSSLAMAWFRQAPGKEREFVAATTILGGSADYGDPVKGRFTISRDNAKNTVYLQMNSLKPEDTAVYYCTGRRPAPSDNYWSPASYAYWGQGTQVTVSS

binding result [1]: binds | binding result [2]: binds
B26: DR944 (VHH)
VHH: QVQLVESGGGLVQAGDSLRLSCAASGRTFTFSTHNMGWFRQAPGKEREFVGGIMWTSRASYADSVKGRFTVSRDNAKNTVYLQMNSLKPEDTAVYYCAAAWYGNSGASYDYWGQGTQVTVSS

— US20230279128A1 (SYNTHEKINE, published 2023)
